From patent publication US7229777B2, “Hairpin peptides with a novel structural motif and methods relating thereto” (Genentech, Inc., priority 2001, dated 2007)
Like-named read-outs stand apart in the source and are kept apart here. Square brackets hold non-standard residues; d marks the D form. Ends that are not written are not given here.

Experiments:
[1] = CD-monitored thermal denaturation (two-state unfolding fit); type: physicochemical; conditions: for ΔCp / Tm / ΔHm: 20 μM peptide in 20 mM potassium phosphate; for ΔCp / Tm / ΔSm / ΔHm: pH 7.0; for Tm: CD at 229 nm; for ΔSm: calculated from the fit parameters (ΔHm/Tm), 20 μM peptide, 20 mM potassium phosphate; for ΔHm: ΔH at Tm
Description: Spectra were acquired with an Aviv Instruments, Inc. Model 202 spectrophotometer. Peptide concentrations were determined spectrophotometrically as described in Gill & von Hippel (1989) Anal. Biochem. 182:319–326. Melting curves were acquired at 229 nm with […] equilibration at each temperature and an averaging time of 15 s. Thermal denaturation was reversible, as judged by recovery of CD signal (≧95%) upon cooling. In addition, reverse melting curves were acquired for trpzips 1 and 4. Reverse and forward curves were identical in shape, with≦0.5 K shift in Tm. As a model for the unfolded state of the peptides, the melting curve (linear) of an equimolar mixture of the trpzip1 half peptides SWTWEG[SEQ ID NO: 14] and NKWTWK [SEQ ID NO: 15] was measured. Data for the trpzip peptides were then fit to a two-state unfolding equilibrium as described in Minor & Kim (1994) Nature 367:660–663, fixing the unfolded baseline. Folded baselines, Tm, ΔHm (ΔH at Tm), and ΔCp were allowed to vary. For trpzips 5 and 6, the unfolded baseline could be fit directly to the experimental data. ΔSm was calculated from the fit parameters (ΔHm/Tm). Errors in Table 2 were generated by the fitting algorithm (Kaleidagraph, Synergy Software) and were given to indicate the quality of the fits to the particular experimental data set. However, when fitting different data sets, ΔHm and ΔCp values varied by ˜10%, as is typical in thermal denaturation experiments. Becktel & Scheilman (1987) Biopolymers 26:1859–1877.
Fitting the trpzip denaturation curves in this manner required large shifts in Tm (˜5–10 K higher than the minimum in a derivative plot) and generated fits of lower quality. […] From our data on trpzips 4, 5 and 6, we can estimate ΔCp ˜200 cal mol^−1 K^−1 for the gb1 peptide, which is sufficient to explain the discrepancy between our population estimate for the gb1 hairpin and those previously reported (Munoz et al. (1997), supra; Honda et al. (2000), supra). Recently, a non-zero ΔCp (˜100 cal mol^−1 K^−1) was reported for the unfolding of a 12-residue hairpin related to gb1. Espinosa & Gellman (2000) Angew. Chem. Int. Ed. 39:2330–2333.

[2] = literature estimates, in water, gb1 at 278 K by NMR, cited from earlier work
[3] = Analytical (equilibrium) ultracentrifugation; type: physicochemical; conditions: for σobs/σcalc (reduced apparent molecular weight, observed/calculated): non-ideal single-species model, 20 mM potassium phosphate, 150 mM KCl, pH 7.1, 277 K
Description: Samples (in 20 mM potassium phosphate, 150 mM KCl, pH 7.1; 277 K) were analyzed in a Beckman XL-A ultracentrifuge at rotor speeds of 40 and 55 krpm. Peptide concentration was monitored by absorbance at or near 290 nm. Data for both speeds and two initial peptide concentrations (60 and 200 μM, […] data sets total per peptide) were fit simultaneously to a nonideal single species model using the program NONLIN. Johnson et al. (1981) Biophys. J. 36: 575–588.
Allowing nonideality improved the fit for the 200 μM samples while only slightly changing the reduced apparent molecular weight σ (˜+6%). For all 3 peptides, data from 60 μM samples fit an ideal model (FIG. 2) with random residuals. Expected σ values were determined from partial specific volumes based on residue composition, calculated buffer density, and monomer formula weights.

| Substance | ΔCp [1] [cal mol^−1 K^−1] | Tm [1] [°C] | ΔSm [1] [cal mol^−1 K^−1] | ΔHm [1] [cal/mol] | ΔCp, estimated from data on trpzips 4, 5 and 6 [1] [cal mol^−1 K^−1] | ΔGunf, estimated assuming additive stabilization from the two pairs ([1]; 298 K, estimated from trpzips 4, 5 and 6) [kcal/mol] | Hairpin population [2] [%] | Hairpin population ([2]; listed as GB1 hairpin) | Tm ([1]; listed as Trpzip1) [°C] | Dependence of thermal denaturation on peptide concentration ([1]; trpzip1 20–150 μM, trpzip4 100 μM vs. 20 μM) | σobs/σcalc (reduced apparent molecular weight, observed/calculated) [3] | Peptide concentration up to which monomeric [3] | unfolding free energy ([1]; 298 K) [kcal/mol] | Melting temperature higher than that of wt gb1 peptide ([1]; depending on the method used to estimate the folded population of gb1) |
| --- | --- | --- | --- | --- | --- | --- | --- | --- | --- | --- | --- | --- | --- | --- |
| GEWVWDDATKTWHWTE (GEWVWDDATKTWHWTE-NH2) [trpzip8] | 440 ± 4 | 79.1 ± 0.1 | 73.8 | 25980 ± 110 | – | – | – | – | – | – | – | – | – | – |
| GEWHWDDATKTWVWTE (GEWHWDDATKTWVWTE-NH2) [trpzip7] | 418 ± 4 | 80.2 ± 0.1 | 70.8 | 25030 ± 100 | – | – | – | – | – | – | – | – | – | – |
| GEWTYDDATKTFTVTE (Streptococcus; Streptococcus Full The 41-56 residue fragment of the protein G B1 domain) [gb1, reference compound] | – | – | – | – | ~200 | ~-0.6 | ~40 | about 50% | – | – | – | – | – | – |
| SWTWEGNKWTWK (SWTWEGNKWTWK-NH2) [trpzip1] | 231 ± 4 | 49.9 ± 0.3 | 33.4 | 10790 ± 120 | – | – | – | – | 50 | does not shift with peptide concentration | 1.02 ± 0.04 | – | – | – |
| SWTWENGKWTWK (SWTWENGKWTWK-NH2) [trpzip2] | 281 ± 2 | 71.9 ± 0.1 | 48.6 | 16770 ± 60 | – | – | – | – | – | – | 1.01 ± 0.04 | at least 200 μM | – | – |
| GEWTWDDATKTWTVTE (GEWTWDDATKTWTVTE-NH2) [trpzip6] | 236 ± 17 | 44.6 ± 0.48 | 32.4 | 10290 ± 300 | – | – | – | – | – | – | – | – | 0.49 | – |
| GEWTYDDATKTFTWTE (GEWTYDDATKTFTWTE-NH2) [trpzip5] | 325 ± 10 | 42.7 ± 0.2 | 42.2 | 13320 ± 140 | – | – | – | – | – | – | – | – | 0.57 | – |
| GEWTWDDATKTWTWTE (GEWTWDDATKTWTWTE-NH2) [trpzip4] | 380 ± 4 | 70.0 ± 0.1 | 63.7 | 21860 ± 60 | – | – | – | – | – | – | – | – | 1.69 | at least 40 K |
| GEWVWDDATKTWVWTE (GEWVWDDATKTWVWTE-NH2) [trpzip9] | 402 ± 2 | 92.0 ± 0.0 | 73.1 | 26690 ± 80 | – | – | – | – | – | – | – | – | – | – |
| SWTWEpNKWTWK (SWTWE[dP]NKWTWK-NH2; N-terminus assumed; SMILES C[C@@H](O)[C@H](NC(=O)[C@H](Cc1c[nH]c2ccccc12)NC(=O)[C@H](CCCCN)NC(=O)[C@H](CC(N)=O)NC(=O)[C@H]1CCCN1C(=O)[C@H](CCC(=O)O)NC(=O)[C@H](Cc1c[nH]c2ccccc12)NC(=O)[C@@H](NC(=O)[C@H](Cc1c[nH]c2ccccc12)NC(=O)[C@@H](N)CO)[C@@H](C)O)C(=O)N[C@@H](Cc1c[nH]c2ccccc12)C(=O)N[C@@H](CCCCN)C(N)=O) [trpzip3] | 195 ± 2 | 78.7 ± 0.2 | 37.0 | 13020 ± 70 | – | – | – | – | – | – | 1.00 ± 0.04 | – | – | – |
